Starred links: 1 amine or outer side, 2 acyl side, 3 side chain; linkers in the order of their positions; H or OH if unused. Non-standard residues stand in square brackets, D forms with d. Groups on a side chain read outwards from the residue. No end group written: not given here. *: point of attachment. C18 diacid = O=C(O)CCCCCCCCCCCCCCCCC(=O)*; γGlu = O=C(O)[C@H](CCC(=O)[*:2])N[*:1]; Palmitoyl = CCCCCCCCCCCCCCCC(=O)*; AEEA = NCCOCCOCC(=O)O; Aib = CC(C)(N)C(=O)O

Results on 6 molecules are retold here after patent publication US12679878B2, “CRF2 receptor agonists and their use in therapy” (SANOFI, priority 2020, dated 2026).

In the assay the target is human corticotropin-releasing factor 2α (CRF2 α receptor) (human), Q13324. As to the kind of experiment: cell-based or functional assay.
Sequence of human corticotropin-releasing factor 2α (CRF2 α receptor) (human), Q13324 (Q13324 20-411): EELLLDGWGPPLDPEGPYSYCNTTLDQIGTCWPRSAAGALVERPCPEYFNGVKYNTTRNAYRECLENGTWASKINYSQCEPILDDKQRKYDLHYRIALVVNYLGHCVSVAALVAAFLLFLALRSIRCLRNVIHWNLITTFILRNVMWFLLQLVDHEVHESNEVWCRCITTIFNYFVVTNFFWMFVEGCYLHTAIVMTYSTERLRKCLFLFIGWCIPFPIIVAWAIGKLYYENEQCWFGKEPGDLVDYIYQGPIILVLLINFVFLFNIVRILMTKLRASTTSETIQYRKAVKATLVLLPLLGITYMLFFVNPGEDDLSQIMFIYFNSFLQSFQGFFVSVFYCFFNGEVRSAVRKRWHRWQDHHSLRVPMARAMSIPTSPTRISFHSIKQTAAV

B1: SEQ ID NO: 119 (peptide)
peptide: IVLSLDVPIKLK([AEEA-AEEA-γGlu-C18 diacid])QILLKQERQKK[Aib]RQKAEKNKQILAQV-NH2
modifications: N-terminus assumed
SMILES: CC[C@H](C)[C@H](N)C(=O)N[C@H](C(=O)N[C@@H](CC(C)C)C(=O)N[C@@H](CO)C(=O)N[C@@H](CC(C)C)C(=O)N[C@@H](CC(=O)O)C(=O)N[C@H](C(=O)N1CCC[C@H]1C(=O)N[C@H](C(=O)N[C@@H](CCCCN)C(=O)N[C@@H](CC(C)C)C(=O)N[C@@H](CCCCNC(=O)COCCOCCNC(=O)COCCOCCNC(=O)CC[C@H](NC(=O)CCCCCCCCCCCCCCCCC(=O)O)C(=O)O)C(=O)N[C@@H](CCC(N)=O)C(=O)N[C@H](C(=O)N[C@@H](CC(C)C)C(=O)N[C@@H](CC(C)C)C(=O)N[C@@H](CCCCN)C(=O)N[C@@H](CCC(N)=O)C(=O)N[C@@H](CCC(=O)O)C(=O)N[C@@H](CCCNC(=N)N)C(=O)N[C@@H](CCC(N)=O)C(=O)N[C@@H](CCCCN)C(=O)N[C@@H](CCCCN)C(=O)NC(C)(C)C(=O)N[C@@H](CCCNC(=N)N)C(=O)N[C@@H](CCC(N)=O)C(=O)N[C@@H](CCCCN)C(=O)N[C@@H](C)C(=O)N[C@@H](CCC(=O)O)C(=O)N[C@@H](CCCCN)C(=O)N[C@@H](CC(N)=O)C(=O)N[C@@H](CCCCN)C(=O)N[C@@H](CCC(N)=O)C(=O)N[C@H](C(=O)N[C@@H](CC(C)C)C(=O)N[C@@H](C)C(=O)N[C@@H](CCC(N)=O)C(=O)N[C@H](C(N)=O)C(C)C)[C@@H](C)CC)[C@@H](C)CC)[C@@H](C)CC)C(C)C)C(C)C
For the molecule B1, the EC50 [nM], 0% HSA turned out to be 0.13 nM and the EC50 [nM], 0.1% HSA turned out to be 4.97 nM.

B2: SEQ ID NO: 121 (peptide)
peptide: IVLSLDVPIKLK([AEEA-AEEA-γGlu-C18 diacid])QILLKQERQKKQREKAEKNKQILAQV-NH2
modifications: N-terminus assumed
SMILES: CC[C@H](C)[C@H](N)C(=O)N[C@H](C(=O)N[C@@H](CC(C)C)C(=O)N[C@@H](CO)C(=O)N[C@@H](CC(C)C)C(=O)N[C@@H](CC(=O)O)C(=O)N[C@H](C(=O)N1CCC[C@H]1C(=O)N[C@H](C(=O)N[C@@H](CCCCN)C(=O)N[C@@H](CC(C)C)C(=O)N[C@@H](CCCCNC(=O)COCCOCCNC(=O)COCCOCCNC(=O)CC[C@H](NC(=O)CCCCCCCCCCCCCCCCC(=O)O)C(=O)O)C(=O)N[C@@H](CCC(N)=O)C(=O)N[C@H](C(=O)N[C@@H](CC(C)C)C(=O)N[C@@H](CC(C)C)C(=O)N[C@@H](CCCCN)C(=O)N[C@@H](CCC(N)=O)C(=O)N[C@@H](CCC(=O)O)C(=O)N[C@@H](CCCNC(=N)N)C(=O)N[C@@H](CCC(N)=O)C(=O)N[C@@H](CCCCN)C(=O)N[C@@H](CCCCN)C(=O)N[C@@H](CCC(N)=O)C(=O)N[C@@H](CCCNC(=N)N)C(=O)N[C@@H](CCC(=O)O)C(=O)N[C@@H](CCCCN)C(=O)N[C@@H](C)C(=O)N[C@@H](CCC(=O)O)C(=O)N[C@@H](CCCCN)C(=O)N[C@@H](CC(N)=O)C(=O)N[C@@H](CCCCN)C(=O)N[C@@H](CCC(N)=O)C(=O)N[C@H](C(=O)N[C@@H](CC(C)C)C(=O)N[C@@H](C)C(=O)N[C@@H](CCC(N)=O)C(=O)N[C@H](C(N)=O)C(C)C)[C@@H](C)CC)[C@@H](C)CC)[C@@H](C)CC)C(C)C)C(C)C
The molecule B2 had an EC50 [nM], 0% HSA of 0.73 nM and an EC50 [nM], 0.1% HSA of 41.3 nM.

B3: SEQ ID NO: 11 (peptide)
peptide: FTLSLDVPTKIK([γGlu-Palmitoyl])QKLLKQEKQKKQRQKAKTNAQILAQV-NH2
modifications: N-terminus assumed
SMILES: CCCCCCCCCCCCCCCC(=O)N[C@@H](CCC(=O)NCCCC[C@H](NC(=O)[C@@H](NC(=O)[C@H](CCCCN)NC(=O)[C@@H](NC(=O)[C@@H]1CCCN1C(=O)[C@@H](NC(=O)[C@H](CC(=O)O)NC(=O)[C@H](CC(C)C)NC(=O)[C@H](CO)NC(=O)[C@H](CC(C)C)NC(=O)[C@@H](NC(=O)[C@@H](N)Cc1ccccc1)[C@@H](C)O)C(C)C)[C@@H](C)O)[C@@H](C)CC)C(=O)N[C@@H](CCC(N)=O)C(=O)N[C@@H](CCCCN)C(=O)N[C@@H](CC(C)C)C(=O)N[C@@H](CC(C)C)C(=O)N[C@@H](CCCCN)C(=O)N[C@@H](CCC(N)=O)C(=O)N[C@@H](CCC(=O)O)C(=O)N[C@@H](CCCCN)C(=O)N[C@@H](CCC(N)=O)C(=O)N[C@@H](CCCCN)C(=O)N[C@@H](CCCCN)C(=O)N[C@@H](CCC(N)=O)C(=O)N[C@@H](CCCNC(=N)N)C(=O)N[C@@H](CCC(N)=O)C(=O)N[C@@H](CCCCN)C(=O)N[C@@H](C)C(=O)N[C@@H](CCCCN)C(=O)N[C@H](C(=O)N[C@@H](CC(N)=O)C(=O)N[C@@H](C)C(=O)N[C@@H](CCC(N)=O)C(=O)N[C@H](C(=O)N[C@@H](CC(C)C)C(=O)N[C@@H](C)C(=O)N[C@@H](CCC(N)=O)C(=O)N[C@H](C(N)=O)C(C)C)[C@@H](C)CC)[C@@H](C)O)C(=O)O
Turning to B3, the EC50 [nM], 0% HSA was determined as 0.02 nM.

B4: SEQ ID NO: 122 (peptide)
peptide: IVLSLDVPIKLK([AEEA-AEEA-γGlu-C18 diacid])QILLKQERQKKQRQQAEKNKQILAQV-NH2
modifications: N-terminus assumed
SMILES: CC[C@H](C)[C@H](N)C(=O)N[C@H](C(=O)N[C@@H](CC(C)C)C(=O)N[C@@H](CO)C(=O)N[C@@H](CC(C)C)C(=O)N[C@@H](CC(=O)O)C(=O)N[C@H](C(=O)N1CCC[C@H]1C(=O)N[C@H](C(=O)N[C@@H](CCCCN)C(=O)N[C@@H](CC(C)C)C(=O)N[C@@H](CCCCNC(=O)COCCOCCNC(=O)COCCOCCNC(=O)CC[C@H](NC(=O)CCCCCCCCCCCCCCCCC(=O)O)C(=O)O)C(=O)N[C@@H](CCC(N)=O)C(=O)N[C@H](C(=O)N[C@@H](CC(C)C)C(=O)N[C@@H](CC(C)C)C(=O)N[C@@H](CCCCN)C(=O)N[C@@H](CCC(N)=O)C(=O)N[C@@H](CCC(=O)O)C(=O)N[C@@H](CCCNC(=N)N)C(=O)N[C@@H](CCC(N)=O)C(=O)N[C@@H](CCCCN)C(=O)N[C@@H](CCCCN)C(=O)N[C@@H](CCC(N)=O)C(=O)N[C@@H](CCCNC(=N)N)C(=O)N[C@@H](CCC(N)=O)C(=O)N[C@@H](CCC(N)=O)C(=O)N[C@@H](C)C(=O)N[C@@H](CCC(=O)O)C(=O)N[C@@H](CCCCN)C(=O)N[C@@H](CC(N)=O)C(=O)N[C@@H](CCCCN)C(=O)N[C@@H](CCC(N)=O)C(=O)N[C@H](C(=O)N[C@@H](CC(C)C)C(=O)N[C@@H](C)C(=O)N[C@@H](CCC(N)=O)C(=O)N[C@H](C(N)=O)C(C)C)[C@@H](C)CC)[C@@H](C)CC)[C@@H](C)CC)C(C)C)C(C)C
For B4, the EC50 [nM], 0% HSA was 0.04 nM and the EC50 [nM], 0.1% HSA worked out at 1.71 nM.

B5: SEQ ID NO: 120 (peptide)
peptide: IVLSLDVPIKLK([AEEA-AEEA-γGlu-C18 diacid])QILLKQERQKKQREQAEKNKQILEQV-NH2
modifications: N-terminus assumed
SMILES: CC[C@H](C)[C@H](N)C(=O)N[C@H](C(=O)N[C@@H](CC(C)C)C(=O)N[C@@H](CO)C(=O)N[C@@H](CC(C)C)C(=O)N[C@@H](CC(=O)O)C(=O)N[C@H](C(=O)N1CCC[C@H]1C(=O)N[C@H](C(=O)N[C@@H](CCCCN)C(=O)N[C@@H](CC(C)C)C(=O)N[C@@H](CCCCNC(=O)COCCOCCNC(=O)COCCOCCNC(=O)CC[C@H](NC(=O)CCCCCCCCCCCCCCCCC(=O)O)C(=O)O)C(=O)N[C@@H](CCC(N)=O)C(=O)N[C@H](C(=O)N[C@@H](CC(C)C)C(=O)N[C@@H](CC(C)C)C(=O)N[C@@H](CCCCN)C(=O)N[C@@H](CCC(N)=O)C(=O)N[C@@H](CCC(=O)O)C(=O)N[C@@H](CCCNC(=N)N)C(=O)N[C@@H](CCC(N)=O)C(=O)N[C@@H](CCCCN)C(=O)N[C@@H](CCCCN)C(=O)N[C@@H](CCC(N)=O)C(=O)N[C@@H](CCCNC(=N)N)C(=O)N[C@@H](CCC(=O)O)C(=O)N[C@@H](CCC(N)=O)C(=O)N[C@@H](C)C(=O)N[C@@H](CCC(=O)O)C(=O)N[C@@H](CCCCN)C(=O)N[C@@H](CC(N)=O)C(=O)N[C@@H](CCCCN)C(=O)N[C@@H](CCC(N)=O)C(=O)N[C@H](C(=O)N[C@@H](CC(C)C)C(=O)N[C@@H](CCC(=O)O)C(=O)N[C@@H](CCC(N)=O)C(=O)N[C@H](C(N)=O)C(C)C)[C@@H](C)CC)[C@@H](C)CC)[C@@H](C)CC)C(C)C)C(C)C
Take B5: the EC50 [nM], 0% HSA stood at 1.27 nM and the EC50 [nM], 0.1% HSA was determined as 61.1 nM.

B6: SEQ ID NO: 118 (peptide)
peptide: IVLSLD[dV]PIKLK([AEEA-AEEA-γGlu-C18 diacid])QILLKQERQK[Aib]QRQKAEKNKQILAQV-NH2
modifications: N-terminus assumed
SMILES: CC[C@H](C)[C@H](N)C(=O)N[C@H](C(=O)N[C@@H](CC(C)C)C(=O)N[C@@H](CO)C(=O)N[C@@H](CC(C)C)C(=O)N[C@@H](CC(=O)O)C(=O)N[C@@H](C(=O)N1CCC[C@H]1C(=O)N[C@H](C(=O)N[C@@H](CCCCN)C(=O)N[C@@H](CC(C)C)C(=O)N[C@@H](CCCCNC(=O)COCCOCCNC(=O)COCCOCCNC(=O)CC[C@H](NC(=O)CCCCCCCCCCCCCCCCC(=O)O)C(=O)O)C(=O)N[C@@H](CCC(N)=O)C(=O)N[C@H](C(=O)N[C@@H](CC(C)C)C(=O)N[C@@H](CC(C)C)C(=O)N[C@@H](CCCCN)C(=O)N[C@@H](CCC(N)=O)C(=O)N[C@@H](CCC(=O)O)C(=O)N[C@@H](CCCNC(=N)N)C(=O)N[C@@H](CCC(N)=O)C(=O)N[C@@H](CCCCN)C(=O)NC(C)(C)C(=O)N[C@@H](CCC(N)=O)C(=O)N[C@@H](CCCNC(=N)N)C(=O)N[C@@H](CCC(N)=O)C(=O)N[C@@H](CCCCN)C(=O)N[C@@H](C)C(=O)N[C@@H](CCC(=O)O)C(=O)N[C@@H](CCCCN)C(=O)N[C@@H](CC(N)=O)C(=O)N[C@@H](CCCCN)C(=O)N[C@@H](CCC(N)=O)C(=O)N[C@H](C(=O)N[C@@H](CC(C)C)C(=O)N[C@@H](C)C(=O)N[C@@H](CCC(N)=O)C(=O)N[C@H](C(N)=O)C(C)C)[C@@H](C)CC)[C@@H](C)CC)[C@@H](C)CC)C(C)C)C(C)C
Regarding B6, the EC50 [nM], 0% HSA was found to be 0.04 nM and the EC50 [nM], 0.1% HSA is 2.13 nM.
